The values below are quoted from earlier work in PMC4616163, “Inverse relationship between chitobiase and transglycosylation activities of chitinase-D from Serratia proteamaculans revealed by mutational and biophysical analyses” (Scientific Reports, 2015).

On the set-up of this series: method as in PMID 11160110, PMID 18368288. As to conditions: other chitinases, literature.

B1: SmChiA: mesophilic chitinase (protein, UniProt P07254 24-563, looked up)
Chitinase A: AAPGKPTIAWGNTKFAIVEVDQAATAYNNLVKVKNAADVSVSWNLWNGDAGTTAKILLNGKEAWSGPSTGSSGTANFKVNKGGRYQMQVALCNADGCTASDATEIVVADTDGSHLAPLKEPLLEKNKPYKQNSGKVVGSYFVEWGVYGRNFTVDKIPAQNLTHLLYGFIPICGGNGINDSLKEIEGSFQALQRSCQGREDFKVSIHDPFAALQKAQKGVTAWDDPYKGNFGQLMALKQAHPDLKILPSIGGWTLSDPFFFMGDKVKRDRFVGSVKEFLQTWKFFDGVDIDWEFPGGKGANPNLGSPQDGETYVLLMKELRAMLDQLSAETGRKYELTSAISAGKDKIDKVAYNVAQNSMDHIFLMSYDFYGPFDLKNLGHQTALNAPAWKPDTAYTTVNGVNALLAQGVKPGKVVVGTAMYGRGWTGVNGYQNNIPFTGTATGPVKGTWKNGIVDYRQIAGQFMSGEWQYTYDATAEAPYVFKPSTGDLITFDDARSVQAKGKYVLDKQLGGLFSWEIDADNGDILNSMNASLGNSAGVQ
On to B1, for which the Tm was 64.2 °C.
